From publication PMC6079076, “Structure of the mouse TRPC4 ion channel” (Nature Communications, 2018)

Target: the molecule itself
Test: cryo-EM structure; single-particle cryo-EM of purified TRPC4 in digitonin, 30 mM HEPES, 150 mM NaCl, 1 mM DTT, pH 7.5; apo state; C4 symmetry imposed; 3.3 Å

B1: mouse TRPC4 (residues a.a. 1–758, excluding a.a. 759–974) (domain or fragment, UniProt Q9QUQ5 1-758, looked up)
chain: MAQFYYKRNVNAPYRDRIPLRIVRAESELSPSEKAYLNAVEKGDYASVKKSLEEAEIYFKININCIDPLGRTALLIAIENENLELIELLLSFNVYVGDALLHAIRKEVVGAVELLLNHKKPSGEKQVPPILLDKQFSEFTPDITPIILAAHTNNYEIIKLLVQKGVSVPRPHEVRCNCVECVSSSDVDSLRHSRSRLNIYKALASPSLIALSSEDPFLTAFQLSWELQELSKVENEFKSEYEELSRQCKQFAKDLLDQTRSSRELEIILNYRDDNSLIEEQSGNDLARLKLAIKYRQKEFVAQPNCQQLLASRWYDEFPGWRRRHWAVKMVTCFIIGLLFPVFSVCYLIAPKSPLGLFIRKPFIKFICHTASYLTFLFLLLLASQHIDRSDLNRQGPPPTIVEWMILPWVLGFIWGEIKQMWDGGLQDYIHDWWNLMDFVMNSLYLATISLKIVAFVKYSALNPRESWDMWHPTLVAEALFAIANIFSSLRLISLFTANSHLGPLQISLGRMLLDILKFLFIYCLVLLAFANGLNQLYFYYEETKGLSCKGIRCEKQNNAFSTLFETLQSLFWSIFGLINLYVTNVKAQHEFTEFVGATMFGTYNVISLVVLLNMLIAMMNNSYQLIADHADIEWKFARTKLWMSYFEEGGTLPTPFNVIPSPKSLWYLVKWIWTHLCKKKMRRKPESFGTIGRRAADNLRRHHQYQEVMRNLVKRYVAAMIREAKTEEGLTEENVKELKQDISSFRFEVLGLLRGSK
notes: mouse TRPC4, a.a; 1-758 of 974 (a.a. 759-974 left out); MBP tag removed with PreScission protease; also called mTRPC4; truncated TRPC4; source: HEK293S GnTI- cells, BacMam baculovirus, purified (amylose resin, Superose 6); not shown: MBP, N-terminal, cleaved
stoichiometry N: 4
